Columns and labels:
IgG1 Fc^E382A (human) = assay: crystal structure; IdeS^C94A and IgG1 Fc^E382A combined 1:1, complex purified by SEC, exchanged into 50 mM HEPES, 150 mM KCl pH 7.5; crystals in Morpheus condition (0.12 M monosaccharides mix, buffer system 3 pH 8.5, 30 % precipitant mix 1); space group C121, twinned data, 2.34 Å
IgG1 Fc^E382R (human) = assay: crystal structure; EndoS^D233A/E235L and IgG1 Fc^E382R combined 1:1, complex purified by SEC, exchanged into 50 mM HEPES, 150 mM KCl pH 7.5; crystals in Morpheus condition (0.09 M halogens, buffer system 2 pH 7.5, 37.5 % precipitant mix 4); space group P2_(1)2_(1)2_(1), 3.45 Å

| Substance | stoichiometry N (IgG1 Fc^E382A (human)) | stoichiometry N (EndoS per IgG1 Fc molecule) (IgG1 Fc^E382R (human)) |
| --- | --- | --- |
| IdeS^C94A (IdeS from Streptococcus pyogenes strain MGAS15252, Mac-2 variant, amino acids 41-339) (enzyme) | 1 IdeS per Fc | – |
| EndoS^D233A/E235L (truncated EndoS, residues 98-995) (from UniProt Q99Y92 98-995) (enzyme) | – | 2 |
